Data published in a protein production outcome set (Wang et al. 2014).

Assay: label from the status in PepcDB records

**Q.** For “MSSPARSPSVGGATPKQGARTPTRGIASQDVETPMRMGPGRAVRPSDNISLPPTSPGNISLPATSPARGLGANMSEIDLSSPLNYGTPSSMGSIRTPRSGIRGTPLRARPDIRTDKRIRQVAIGGGSGLEPIPEKGSETTDPVSESSQAPQLVVWGTNVVVSQCKSKFKSFIMRFIDPSAEQDEISENIDVNQPLYLQKLEEIHTLEEPYLNLNCAHLKTFDQDLYRQLICYPQEVIPGFDMAINEMFFERYPAALLEHQIQVRPFNADKTRNMRSLNPEDMDQLISISGMVIRSSNVIPEMREAFFSCNICSFSTTVEVDRGRINQPTLCTNCNTNHCFRLIHNRSEFTDKQLVKLQESPDDMAAGQTPHNVLLYAHNDLVDKVQPGDRVTVTGIYRATPLKTGGLSSSVKSVYKTHVDVVHFRKVDNKRLYEDEEGKDHIFPPERVELLQLLAKKPDIYDRLARAIAPSIYENDDIKKGILLQLFGGTKKKHATLGRQNFRSEIHLLLCGDPGTSKSQMLQYVFNLVPRSQYTSGRGSSAVGLTAYVTKDPETRQLVLQTGALVLADNGVCCIDEFDKMNDSTRSVLHEVMEQQTLSIAKAGIICQLNARTSILAAANPAESQWNKRKNIIDNVQLPHTLLSRFDLIFLVLDPQDEIFDKRLASHLVSLYYVTRHEEEDTMFDMSVLRDYIAYAREHLSPTLSDEAQQRLIQAYVDMRKVGAGRGQISAYPRQLESLIRLSEAHAKVRLSNQVELLDVEEAWRLHREALKQSATDPLSGKIDVGILTTGLSTAARKKRADLVAAIKENLKKKGKVLTVPYQKLFSDIKEGSQIMITREQFEDALKEVQDEGAIVVMGKNTIRIC”, which protein production is on record?
**A.** failed

**Q.** For “IAGPGLGSGVRARVLQSFTVDSSKAGLAPLEVRVLGPRGLVEPVNMVDNGDGTHTVTYTPSQEGPYMVSVKYADEEIPRSPFKVKVLPTYDASKVTASGPGLSSYGVPASLPVDFAIDARDAGEGLLAVQITDQEGKPKRAIVHDNKDGTYAVTYIPDKTGRYMIGVTYGGDDIPLSPYRIRATQTGDASKCLATGPGIASTVKTGEEVGFVVDAKTAGKGKVTCTVLTPDGTEAEADVIENEDGTYDIFYTAAKPGTYVIYVRFGGVDIPNSPFTVMATDGEVTAVEEAPVNACPPGFRPWVTEEAYVPVSDMNGLGFKPFDLVIPFAVRKGEITGEVHMPSGKTATPEIVDNKDGTVTVRYAPTEVGLHEMHIKYMGSHIPESPLQFYVNYPNSGSVSAYGPGLVYGVANKTATFTIVTEDAGEGGLDLAIEGPSKAEISCIDNKDGTCTVTYLPTLPGDYSILVKYNDKHIPGSPFTAKITDDSRRCSQVKLGSAADFLLDISETDLSSLTASIKAPSGRDEPCLLKRLPNNHIGISFIPREVGEHLVSIKKNGNHVANSPVSIMVVQSEIGDARRAKVYGRGLSEGRTFEMSDFIVDTRDAGYGGISLAVEGPSKVDIQTEDLEDGTCKVSYFPTVPGVYIVSTKFADEHVPGSPFTVKISGEGRVKESITRTSRAPSVATVGSICDLNLKIPEINSSDMSAHVTSPSGRVTEAEIVPMGKNSHCVRFVPQEMGVHTVSVKYRGQHVTGSPFQFTVGPLGEGGAHKVRAGGPGLERGEAGVPAEFSIWTREAGAGGLSIAVEGPSKAEITFDDHKNGSCGVSYIAQEPGNYEVSIKFNDEHIPESPYLVPVIAPSDDARRLTVMSLQESGLKVNQPASFAIRLNGAKGKIDAKVHSPSGAVEECHVSELEPDKYAVRFIPHENGVHTIDVKFNGSHVVGSPFKVRVGEPGQAGNPALVSAYGTGLEGGTTGIQSEFFINTTRAGPGTLSVTIEGPSKVKMDCQETPEGYKVMYTPMAPGNYLISVKYGGPNHIVGSPFKAKVTGQRLVSPGSANETSSILVESVTRSSTETCYSAIPKASSDASKVTSKGAGLSKAFVGQKSSFLVDCSKAGSNMLLIGVHGPTTPCEEVSMKHVGNQQYNVTYVVKERGDYVLAVKWGEEHIPGSPFHVTVP”, which protein production is on record?
**A.** failed

**Q.** For “MPRRSALLGQPLFRLLAINLAIGVTIAALLLGGLLYLNPGHLRDLIFADDSPGTALGLLLFGFVVTFGSAAMGSAIMAMGSDLRGGGKGGRKLALPIEMIPGAKAIPVRAEHGARAVRRHGSL”, which protein production is on record?
**A.** failed

**Q.** With “LKPERVITKNSGASLIDLGDDVALLEFHSPNNSIGFDVVQMINKAVDEVEANYKGLVIGNQGKNFCVGANLMMILMEAQDDNFFEIDMVVRQFQQAMAKIRYSQKPVVSAPFAMTLGGGTEICLPTASIQASLETYMGLVEVGVGVIPGGGGNKELYLRHLERLPEGANIDLQSIANKTFETIAMAKVSTSAHEAMENGFLSERDGVVVNGDHLLYQAKQQVIHLHDAG” as the sequence, how does the protein production read?
**A.** failed

**Q.** For “MPDGPDPSSYGPDESPGPDPEEPSSSETAPARHARTTTASRRGHARERMPVSPDESASTFTFDRVVRFLLGAAAVGSVGWMVWYFAGIVLYLIVGGLLAYLLRPPVDYIQGLGVGRVPAILVAFAVFLGVIVVIVTSVVPFITRQVQDLSQLITIDTAAYVANLIEAQVQGVVPLEQGVLEENVRQAAESLMRGDLVEGQQVAETVSSVVSVFTNIVYAVVIVPFVTFFLLKDELRIRRSLLHLVPNRYFEVTLSILAKVELNIGRYFRALLVQGTAIAVIASTLLWIVGLRGAIAIGIFTGLANTIPYFGPFLGFLAGTLVGIAQTGDVSLVPGVALAMALTQLADNVLLQPLIFSRAAQTHPLVILFVVLAGAQLGGILGMLMAIPLTTTLRVIVEQLLWSLRNYRILRAG”, which protein production is on record?
**A.** failed

**Q.** Which protein production does the source give for “MDFGKPNQVTVNYLDENKTPIAPSLYLSGLFNEAYNVPMKKIKGYTLLKYDSEILGVFTESPQTINIIYQKKAPEQALEHHHHHH” here?
**A.** failed

**Q.** Which protein production does the source give for “IKTRGRNLYSYEGKIGKAVDDIKSGQEGYVIVEGEYWRALALEDIKKNEDIVVVKREGMKLMVRKKVSDIETSRV” here?
**A.** failed

**Q.** With “MTISQNRNGDDVAVHKFGLFVAKHRKLVLAIAILLLIPSIYGFVTTKVNYDILTYLPKDLESVKGQDILDKEFKQAALSMLIVKGDMNISNIQKLKSKISQVDGVEKVIWIDDFLDPTIPKEMLPDVLKNTFYSKDSTLLLIQFKNSASSLETQNAISKIRKIATAQCFLSGMSAIIKDTRDLSDRETPLYVLVAVVFIFILLLLTMESPIVPILFLTSIGMAIIYNLGTNKFLGEISYITKSLAAVLQLGVTMDFSIFLMHRYDEERKRFDSKEEAMAEAISKTLVAILSSAATAIAGFLALCVMRLRIGADIGIVMAKGVFLGVIGTVTILPALILTFDRAIHKFRLKNILPTFSKTAEFATKYHVVLFVVFLLAFIPAIYGRVNIKEYYNLIDSLPKTIKSVQATDLLKKEYNMTTTHMVLVDRSVPKYQIKNMCEEIKRVKGVEKVLAFDDILGPAIPDEFIPSSVKENFEKGNFKLIMINSIYKSATSEENAQIERIQQIVKKYSKRSYVTGEGVLTKDLVEMADTDLKRVDFISILAIFMIILITFKSISIPLILVLAIELAIFINLAIPYYTNVTVPFIASIVLGTIQLGSAINYAILMTTRFREEIQKGHDRFEAIKIAVKTSSRSVVTSALAFAFSTLAVALIAKIDMIRSLCEMLSRGAVISMIVILFVLPSLLLLFEGAIAKTTFGWRSKEASVKPSEEYETL” as the sequence, how does the protein production read?
**A.** failed

**Q.** With “MFIGIVSLFLTVLVYLGAKKVYQRFPRVYTSPLLVTPAVLVGLLLLVNVPYESYNLGGGLLTDMLQPATVAFAIPLYKYFPVLKKYAVEIILNVAVGSCIAIISTALIAKWLHLGTGLIDSLVPRSVTTPIAVHVSEMIGGMPAVTAVFVILTALLGTVIGPMVIRYFRIDNEIARGVLLGTSAHGAGTSKAFELSSVSGTISSVSMILAAIMTLWPAPFCFHLCKKLSSRGQFFLCASPY” as the sequence, how does the protein production read?
**A.** failed

**Q.** For “MKAWVLKRLGGPLELVDLPEPEAEEGEVVLRVEAVGLNFADHLMRLGAYLTRLHPPFIPGMEVVGVVEGRRYAALVPQGGLAERVAVPKGALLPLPEGLSPEEAAAFPVSFLTAYLALKRAQARPGEKVLVQAAAGALGTAAVQVARAMGLRVLAAASRPEKLALPLALGAEEAATYAEVPERAKAWGGLDLVLEVRGKEVEESLGLLAHGGRLVYIGAAEGEVAPIPPLRLMRRNLAVLGFWLTPLLREGALVEEALGFLLPRLGRELRPVVGPVFPFAEAEAAFRALLDRGHTGKVVVRL”, which protein production is on record?
**A.** not failed

**Q.** With “MTAAEPYTVELAADVHAYVQPDGGWCLNNAGFVSDGTTTLLVDTAATERRTRALSAAIAAAGVPAPRFVVNTHHHGDHTYGNSHFAPTATIVSHAECRRETLANGRQLHLLWPENDFGDIRIQAADLTYTGHTTVHVGAVDAEVIHPGVAHTVSDSVVWLPHRRVLFTGDLVFEGGTPFILMGSLSGSLRALDVLRQLGAETVVPGHGPVTDPSAFDRTERYLRFVADIAHKSHAAGRTPLEAARETDLGEFAALPESERFVANLHRAYAELDGAPEGAPLDVPAAVRDIAAMNGGRMVACHA” as the sequence, how does the protein production read?
**A.** failed

**Q.** Which protein production does the source give for “MAMGRTTQFTLDEVAKHADKDSCWLVIDGKVYAVEKFLNEHPGGEDVLLETAGRDATREFEDVGHSKSAREQLKEFYIGDVREPTAEELAAKRAVQASAAAERRDGDGVRANGLGKERLFAGGAFGAEPLSGGSSTWTLLKRLFVPVCIAVLVYLVREYSKQVQTGG” here?
**A.** not failed

**Q.** For “MDGIFAGIICNQANRCLTWTSQQLFSEKISGAEGTKLDDEFLDMERKIDVTNKVVAEILSKTTEYLQPNPAYRAKLGMLNTVSKIRGQVKTTGYPQTEGLLGDCMLKYGKELGEDSTFGNALIEVGESMKLMAEVKDSLDINVKQTFIDPLQLLQDKDLKEIGHHLKKLEGRRLDYDYKKKRVGKIPDEEVRQAVEKFEESKELAERSMFNFLENDVEQVSQLAVFIEAALDYHRQSTEILQELQSKLQMRISAASSVPRREYKPRPVKRSSSELNGVSTTSVVKTTGSNIPMDQPCCRGLYDFEPENQGELGFKEGDIITLTNQIDENWYEGMIHGESGFFPINYVEVIVPLPQ”, which protein production is on record?
**A.** not failed

**Q.** For “MEQKILSSEPRRSFSNEFKLQMVKLASQPGAXVARIAREHDINDNLLFKWLRLWQNERRISRRLPVTTSSGAGVELLPVEITPDEQKEPMAALTPLLSTPSQSTVSASSCKVEFRHGNMTLENPSPELLTVLIRELTGRGR”, which protein production is on record?
**A.** failed

**Q.** With “MQDKNFDKLAQKFAKNIYGTPKGEIRAAVLWRDLAPALAQFGDKKLRILDAGGGFGYFSQKLARLGHEVVLCDISAEMLAQAKEQIDASDTPLAIRLVHAPIQALSITEHGMFDLILCHAVVEWLADAKTTMEGLLTMLKPNGLFSLMFYNKEAMRFHALVSGNFDYVAADLKVKKKVRLTPTHPLYIHEVKLWFAQWQMALLKESGVRVIHDYLKKQQAADFDYQKLLSMELEYSQREPYISLGRYVHFLGLEHHHHHH” as the sequence, how does the protein production read?
**A.** failed

**Q.** For “SLEEVVNELTEEIRELYTADQVPWVIGYSGGKDSTAVLQLVWMALKGLPAEQRTKAVHVISTDTLVENPVVAAWVSASLGTMQDAAQAQGLPVEPHRLTPEIKDTFWVNLLGRGYPAPRPKFRWCTERLKIKPSNAFIRSVVAAHGEAIMVLGIRKTESQARARAMEKHEKRRVRDRLSPNANLPNSLVYSPVEDWTNDDVWEFLMQKPNPWGYTNQDLLTMYQGASSDGECPLVVDSTTPSCGSSRFGCWT”, which protein production is on record?
**A.** failed

**Q.** For “MASQTNQTVVDTKKIETENPPKPQVPASSCRKRVKDDNATFFANLKDHMDEFIHASMDEHKTCFKNTMDKIFGSFSKAEAVAEKQIEAKEVVEIHSPLQTAVTK”, which protein production is on record?
**A.** not failed

**Q.** For “MERHQHLLSEYQQILTLSEQMLVLATEGNWDALVDLEMTYLKAVESTANITISSCSSLMLQDLLREKLRAILDNEIEIKRLLQLRLDRLSDLVGQSTKQQAVNNTYGQFPDHALL”, which protein production is on record?
**A.** not failed

**Q.** With “MSENNSNREPQKDVGKGNNSLMRWVGRLVLFAIILAITSFLTPGFSIRGFWTFVLASVVITGLDYLVESFMKVDASPFGKGLKGFIISAVIIYLAQFLVPNMRVSIIGAILASLVIGVIDAIIPSRSM” as the sequence, how does the protein production read?
**A.** failed

**Q.** Which protein production does the source give for “MDTYMIDAELEHYLGERLSSSSRQALCRLHVRACARFHGAELEEYRRRLRAHARAYARLGRMLQSPFRHMETALFLSSFTLFVAGIIMVVNGDLSALVACGTAAGLVGMIECARKLAGHWHRYGVMEAVYRELEEQLANG” here?
**A.** failed
